Measurements taken from US20230272445A1.

Biological target: purified active porcine pancreatic elastase (porcine) (UniProt P00772)
Assay: cell-based or functional assay

Sequence of UniProt P00772 (P00772 27-266 limits assumed): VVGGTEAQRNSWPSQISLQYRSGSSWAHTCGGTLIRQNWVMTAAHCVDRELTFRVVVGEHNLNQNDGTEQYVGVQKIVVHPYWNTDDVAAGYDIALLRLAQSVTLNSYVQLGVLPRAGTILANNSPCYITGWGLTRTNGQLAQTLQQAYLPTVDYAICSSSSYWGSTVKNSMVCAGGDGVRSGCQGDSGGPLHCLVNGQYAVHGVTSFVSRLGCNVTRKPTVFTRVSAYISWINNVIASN

A1AT concentration at which a decrease in elastase activity was detected: > 0.1 µM
Substance: plasma-derived human alpha-1-antitrypsin (Prolastin-C) (from UniProt P01009 25-418)
